Data from PMC11033526 (Journal of Biochemistry, 2023).
No end group written: not given here. *: point of attachment. Biotin = O=C1N[C@H]2[C@H](CS[C@H]2CCCCC(=O)*)N1

Tests used:
mouse calmodulin [1] = molecular target: T1, mouse calmodulin (mouse, UniProt P0DP26 1-149); assay: SPR; Biacore 2000; biotinylated T1r peptides on a CAP chip (Biotin CAPture Kit); mCaM injected, 2-fold dilutions from 50 μM, +Ca2+ (1 mM CaCl2), 25°C, 30 μl/min; KD from equilibrium responses, 1:1 model; details: both partners purified
T1 construct: also called mCaM; CaM; source: E. coli BL21 (DE3) pLysS, purified (Phenyl Sepharose)

mouse calmodulin [2] = molecular target: T1, mouse calmodulin; assay: pull-down; His-tagged ySUMO-fusion protein on Ni-NTA Superflow, ySUMO portion denatured with 6 M guanidine chloride; 0.6 μM mCaM in +Ca2+ buffer (150 mM NaCl, 0.1% Tween 20, 1 mM CaCl2, pH 7.5), 4°C, 2 h; CaM detected by western blot; details: both partners purified

| Binder | Kd (mouse calmodulin [1]) [µM] | binding result (mouse calmodulin [2]) |
| --- | --- | --- |
| Biotin-GGSGGSPKCYMILFYPERNTSAYFNSMIQGYTMRKS (N-terminal linker segment; mouse T1r2, cytosolic C-terminal region as defined by TMHMM, residues 814-843; source: synthetic peptide (Hokkaido System Science, ~90% purity)) [biotin-mT1r2 CT peptide (cytosolic C-terminal region of mouse taste receptor type 1 subunit 2)] | 27 |  |
| PKCYVILCRPELNNTEHFQASIQDYTRRCGTT (domain or fragment, mouse T1r1, cytosolic C-terminal region (CT), residues 811-842; On the Ni-NTA beads the ySUMO portion was denatured with 6 M guanidine chloride before mCaM was added; also called ySUMO-fusion protein of the mT1r1 C-terminal region; source: E. coli BL21 (DE3), purified (Ni-NTA); not shown: FLAG, N-terminal, kept; ySUMO, N-terminal, kept; His8, C-terminal, kept) [FLAG-ySUMO-mT1r1 CT] |  | binds |
| PKCYMILFYPERNTSAYFNSMIQGYTMRKS (domain or fragment, mouse T1r2, cytosolic C-terminal region (CT), residues 814-843; On the Ni-NTA beads the ySUMO portion was denatured with 6 M guanidine chloride before mCaM was added; also called ySUMO-fusion protein of the mT1r2 C-terminal region; source: E. coli BL21 (DE3), purified (Ni-NTA); not shown: FLAG, N-terminal, kept; ySUMO, N-terminal, kept; His8, C-terminal, kept) [FLAG-ySUMO-mT1r2 CT] |  | binds |
